# Data from patent US20150064751.
# Test system: cleavage control protein containing an enterokinase cleavage site (Asp-Asp-Asp-Asp-Lys)
substance,measurement,value
recombinant enterokinase (Novagen),"protease cleavage, detection of the 16 kDa cleavage fragment by immunoblot (2 h, room temperature)",The target protein was specifically cleaved by recombinant enterokinase (lane 2)
